{"source": "paper PMC6529005", "about": "“FMRP - G-quadruplex mRNA - miR-125a interactions: Implications for miR-125a mediated translation regulation of PSD-95 mRNA”", "key": {"FMRP S500D [1]": {"target": "T1, FMRP S500D (UniProt Q06787 1-632, S500D)", "test": "EMSA; 200 nM RNA, up to 1:2; Fluorescence: 10 mM cacodylic acid pH 6.5, 150 mM KCl, 1 uM BSA, 200 nM RNA; EMSA: 0.5x TBE native gels at 4 C (5 mM KCl for PSD-95 RNAs), incubation at room te"}, "FMRP S500D [2]": {"target": "T1, FMRP S500D", "test": "EMSA; 200 nM RNA, complete at 1:2; Kd estimated low nM; Fluorescence: 10 mM cacodylic acid pH 6.5, 150 mM KCl, 1 uM BSA, 200 nM RNA; EMSA: 0.5x TBE native gels at 4 C (5 mM KCl for PSD-95 RNAs), incubation at room te"}, "FMRP RGG peptide [3]": {"target": "FMRP RGG peptide (UniProt Q06787)", "test": "EMSA; 200 nM RNA, up to 1:2; Fluorescence: 10 mM cacodylic acid pH 6.5, 150 mM KCl, 1 uM BSA, 200 nM RNA; EMSA: 0.5x TBE native gels at 4 C (5 mM KCl for PSD-95 RNAs), incubation at room temperature 15-20 min; pull-down: RIPA (150 mM NaCl, 50 mM Tris pH 8.0), room temperature"}, "FMRP S500D [4]": {"target": "T1, FMRP S500D", "test": "fluorescence titration (2AP); 150 mM KCl, 1 uM BSA; Fluorescence: 10 mM cacodylic acid pH 6.5, 150 mM KCl, 1 uM BSA, 200 nM RNA; EMSA: 0.5x TBE native gels at 4 C (5 mM KCl for PSD-95 RNAs), incubation at room te"}, "FMRP S500D [5]": {"target": "T1, FMRP S500D", "test": "EMSA; 200 nM RNA, similar to miR-125a; Fluorescence: 10 mM cacodylic acid pH 6.5, 150 mM KCl, 1 uM BSA, 200 nM RNA; EMSA: 0.5x TBE native gels at 4 C (5 mM KCl for PSD-95 RNAs), incubation at room te"}, "FMRP RGG peptide [6]": {"target": "FMRP RGG peptide (UniProt Q06787)", "test": "EMSA; 5 mM KCl; Fluorescence: 10 mM cacodylic acid pH 6.5, 150 mM KCl, 1 uM BSA, 200 nM RNA; EMSA: 0.5x TBE native gels at 4 C (5 mM KCl for PSD-95 RNAs), incubation at room temperature 15-20 min; pull-down: RIPA (150 mM NaCl, 50 mM Tris pH 8.0), room temperature"}}}
{"binder": "UGGAGUGUGACAAUGGUGUUUG (ssRNA)", "note": "[miR-122]", "values": [{"measurement": "binding result", "setting": "FMRP S500D [1]", "result": "no binding"}]}
{"binder": "UCCCUGAGACCCUUUAACCUGUGA (ssRNA)", "note": "[miR-125a]", "values": [{"measurement": "binding result", "setting": "FMRP S500D [2]", "result": "binds"}, {"measurement": "binding result", "setting": "FMRP RGG peptide [3]", "result": "no binding"}]}
{"binder": "GGGAGGGAGGGUGGG (structured_RNA, A4 replaced by 2-aminopurine)", "note": "[PSD-95 Q2 4-2AP]", "values": [{"measurement": "Kd", "setting": "FMRP S500D [4]", "result": 100, "unit": "nM"}]}
{"binder": "GGGAAAAGGGAGGGAUGGG (structured_RNA, A11 replaced by 2-aminopurine)", "note": "[PSD-95 Q11234 11-2AP]", "values": [{"measurement": "Kd", "setting": "FMRP S500D [4]", "result": 66, "unit": "nM"}]}
{"binder": "UCCCUGAGACCGUUUAACCUGUGA (ssRNA)", "note": "[miR-125a-Mut2]", "values": [{"measurement": "binding result", "setting": "FMRP S500D [5]", "result": "binds"}]}
{"binder": "PSD-95 Q1-Q2 (structured_RNA) RNA: GGGAAAAGGGAGGGAUGGGUCUAGGGAGUGGGAAAUGCGGGAGGGAGGGUGGG", "values": [{"measurement": "binding result", "setting": "FMRP RGG peptide [6]; two G-quadruplexes", "result": "binds"}]}
{"binder": "UCCCUGAGACCCUAACUUGUGA (ssRNA)", "note": "[miR-125b]", "values": [{"measurement": "binding result", "setting": "FMRP S500D [5]", "result": "binds"}]}
{"binder": "GGGAAAAGGGAGGGAUGGGUCUAGGG (structured_RNA)", "note": "[PSD-95 Q1]", "values": [{"measurement": "binding result", "setting": "FMRP RGG peptide [6]; G-quadruplex, multiple conformations", "result": "binds"}]}
{"binder": "GGGAGGGAGGGUGGG (structured_RNA)", "note": "[PSD-95 Q2]", "values": [{"measurement": "binding result", "setting": "FMRP RGG peptide [6]; G-quadruplex", "result": "binds"}]}
{"binder": "UAGGUAGUUUCAUGUUGUUGGG (ssRNA)", "note": "[miR-196a-1]", "values": [{"measurement": "binding result", "setting": "FMRP S500D [1]", "result": "binds"}]}
